Test results from a protein production outcome set (Wang et al. 2014).

Experiment: label from the status in PepcDB records

Row | Sequence | protein production
1 | MAPQSHGRSRINSIDMMRGLVMLIMLLDHVREQFFLHMQVSDPMDLSTTTWDLFVSRFAAHFCAPVFVFLTGVSAWLYANRGHGEPRSVRVFLLKRGLFLIALEVLVINFSWMGNYHTLWLQVIWVIGLSMLALAALIKLPRLWMALLGLLIVFGHNLLSPIHFEPDTWGYSLWTILHDRGYLIAEGDLKLKVSYPLLPWIGVILLGYVAGPLFSRKFEAWQRQQRLMLLGVGCFAFFCLLRGFNLYGETLPWQVGESIGQTLMSVFNLTKYPPSLSFLLVTLGGMFCGLVLFERYFAAGSLFSWIGQKLAVFGSVPMFFYILHLYVLLLLYLVAKGLFGANHGELFGVAHMGWVWLISLVLIPLLYYPVSWFSRYKSQSQQAWLKYL | failed
2 | MKGMKYHDYIWDLGGTLLDNYETSTAAFVETLALYGITQDHDSVYQALKVSTPFAIETFAPNLENFLEKYKENEARELEHPILFEGVSDLLEDISNQGGRHFLVSHRNDQVLEILEKTSIAAYFTEVVTSSSGFKRKPNPESMLYLREKYQISSGLVIGDRPIDIEAGQAAGLDTHLFTSIVNLRQVLDI | not failed
3 | MYVTIVYASVKTDKTEAFKEATRMNHEQSIREPGNMRFDILQSADDPTRFVLYEAYKTRKDAAAHKETAHYLTWRDTVADWMAEPRKGVIYGGLYPTGDD | not failed
4 | MKVMIEKILLVQTLKRLPRMGWLIKGVQEPESIADHSFGVAFITLVLADVLEKRGKRIDVEKALKMAIVHDLAEAIITDIPLSAQEFVDKDKAEALVFKKVFPEFYELYREYQECSSPEAQLVRIADKLDMILQAYQYELSGNKNLDEFWEAIEEIKRLELSKYLEDILNSVGRLKA | not failed
5 | MDILKSEILRKRQLVEDRNLLVENKKYFKRSELAKKEEEAYFERCGYKIQPKEEDQKPLTSSNPVLELELAEEKLPMTLSRQEVIRRLRERGEPIRLFGETDYDAFQRLRKIEILTPEVNKGLRNDLKAALDKIDQQYLNEIVGGQEPGEEDTQNDLKVHEENTTIEELEALGESLGKGDDHKDMDIITKFLKFLLGVWAKELNAREDYVKRSVQGKLNSATQKQTESYLRPLFRKLRKRNLPADIKESITDIIKFMLQREYVKANDAYLQMAIGNAPWPIGVTMVGIHARTGREKIFSKHVAHVLNDETQRKYIQGLKRLMTICQKHFPTDPSKCVEYNAL | failed
6 | DTVLIVNKKAEIIWINNNITNLLGYLPDELLGKSIECLVPSRTREKHVNLRNSFINKPNKRSMNQGSGLWAVHKKNHEIPVCIDLNHYEESGEKFTVCSIRL | failed
7 | MTCLFSDAPIPDHLYGAIVALGNFDGFHLGHQAVVAAAVARGHAEGRPVIVATFDPHPVRFFCPDLPPFALTTIPQRARLFEKAGADATFVIRFSEAMANLSPEEFIQQQIIDHLKAAGVVTGRDFTFGKGRKGGVDLLQAMGQNLNISVDTIMPVCDQQGAISSTRIREALKQGDPETAARLLSRP | failed
8 | QVPILHRDADFLLRALQPDDFVRTSRYENANREHLAPWEPLRDPGYFSVDNARARTLLQVASMDEGEALLLLLLDPDDGEVLGRCSYTNIVRGVFQACHLGFSLAAAAQGRGLMARALRVANRYCFEQLGLHRIMASHLPRNARSERLLESLGFEKEGYARAYLKIAGVWEDHVLRALVDAPR | not failed
9 | MSSPKISIIIPVYMAESYLHRCVDSIITQTFTDWELLLVDDGSPDHSGELCEKYASAYKSRIKAFHKPNGGVASAREFGMQQARGEYSIHVDPDDWIDSNTLEELYQQAVKEQADMVICDFMMEYPNRQIHNCQKPQLLDSSSFMHQLLQQERHGSLCNKLIRTELYHKYQLHFPEKMICWEDLYICCSILLHGCKLAYVPHALYHYDFYTNDNSMVRHTDMRGLQAQIDFCRLMQAKISPEYLPELNELKGITLITAFRNQLLNEQAIRSLFPEINDWYVTRYGHDYEKSNYYGLTLVLRGYNFKTARRRMFVAKFLVQIKNKITRMLLEHHHHHH | not failed
10 | MNDPQKLCDVNFFRPRKGYMTGEVAIIAAVLVGWAVANFGFQGVLALLAQSPDGEGILTRLTFLSFPWHFWFTGQFLPLWFIILCVLFNIYIDRHTEQHSRRRDRSHD | failed
11 | MENTLSFKKQGYWLFSSAIIIGVLFLLLPHIISNIGVLEFIGAFFNALCMGVIAFIILKAEFLDWFKHFSFKWIIIGAPALIIISSIFNIAWAYFAGSTTENGINSVLTWTYVFTSIPFMLLGEELLSISLLYAAWKKWNWKFWQASLLCSLLFATWHLTSYDFNFLQCIITLAPARLILNYLFKKTNSVWVTFIVHFIFDFIAFLPILLK | failed
12 | MYCKGRREREAYIVVKIDLITGFLGSGKTTFIRKYVKYLVDKGYNVGILENDYGAVNVDMMLLQDLMGPNCHAEMVAGGCGEDCHKRRFKTKLIAMGMSGYDRVIVEPSGIFDVDEFFDTLHEEPLDRWYEVGSIIAIVDAKLDTDMSRQSRYVLASEIANCGALVMSKTSGVSEDEISHTKEFVNKTLEEFQCRRRFDGDVITKAWELFGSEDYERFMSVGYKLNDFTKLWFKQSDVYSSVYIMNRNFTREQLVDIVNRVFSDKDCGDVFRIKGFFSVEQDSWLELNATVHKTEIKPIDKGQKIIIIIGSDLMEDKIKQYFEE | failed
13 | MFSKIFKSFFYSWLATLFSTSLILCICFGNSHPVAIVNAQTPDAYKLVNQGIESYKKGDFHAAIKPWEAALDSYQKNNDFRNIAIINENLARTYQQLGNKSLTLSYWEKVKDYYHSQKNLQKVGRILTEIAQIYSNSGQTKKSYQSFMWCKYINLSNRECITNCPGTTR | failed
14 | MKKAIQFGAGNIGRGFIGGLLVKSGYHVVFADVNEYILNSINKDKKYTIHIRDVECIDEVIDNISAVSSIKEEIIDEIVQAEIITTAVGPLVLTKIASTIAKGIKARKEKGLTSNLNIIACENAIYASSSLKEEVLKYLNKEEVEYLEMYVGFPNCSVDRIVPPGKNENPLDVTVENFYEWNVEKQGFKGEIPTIVGMNLADNLMAYIERKLFTLNTGHAITAYIGYLKGYKTIEESIKDKFICDIVKSAMVESGEGLIKKYNFDSEVHYKYIDKILNRFKNPYLNDDVLRVGREPLRKLSDKDRLIKPLMTAKSYGLSVDNLILGIGAALHYNNSEDTQSVELQELIKSIGVKKAVAKIANISNDEELLNNIEKSYIFMKNL | not failed
15 | MTTLVLVSHPHLADSTSQQFLKASINSDEVLWEHIESQATIDIEKEQAQLRQADRIILQFPLYWYAAPAGLKQWEDTVLTRTFVYGDHRYPLAGKELGIVVTTGMPAKAFQRGGAEQITLDAALAPLAAVANRAKMKWLPTFAIHQFAYLDEPAKLQLVVDYQRYLTQTQPDNLQNKQAWFAQHLPAMIERLPLEQQQAGQLILTAFEQQQTDLEALTDTLGLIKEQEDD | failed
16 | MKIMKTFALSSIASAAMLFCSSALAADGTITVDGKVTDRTCTINGGTPNFSVTMPTVSFSSLNGEGKTSARTPFTIELTNCTAGSTVATYFEPGPAVDINTSRLINQAPTASAATNVQVQLLGSNGSVIPIKAVGTTGAQDNSQWVAVNASGAASMHYYTEYYATGVSTAGSVVTNIQYTIIYQ | failed
17 | MAGEDSFERIALEWHARHMANKSESHATKTLERLRKDVFPWIGNRPVREITAPELLSVLRRIESRGAIELCHVTKRICGQVMRYAIATGRAERDPAADLKGALQPVKARHLEHHHHHH | failed
18 | MKTVLLTGFDPFGGESINPAWEVAKSLHEKTIGEYKIISKQVPTVFHKSISVLKEYIEELAPEFIICIGQAGGRPDITIERVAINIDDARIADNEGNQPVDVPVVEEGPAAYWSTLPMKAIVKKLQEEGIPASVSQTAGTFVCNHLFYGLMHELEKHDTKMKGGFIHIPFLPEQASNYPGQPSMSLSTIRKGIELAVEVTTTVEVDIVEVGGTTH | not failed
19 | KCETKEKGAITAKELYTMMTDKNISLIIMDARRMQDYQDSCILHSLSVPEEAISPGVTASWIEAHLPDDSKDTWKKRGNVEYVVLLDWFSSAKDLQIGTTLRSLKDALFKWESKTVLRNEPLVLEGGYENWLLCYPQYTTNAKV | not failed
20 | MEIIHLSEIDSTNDYAKELAKEGKRNFIVLADKQNNGKGRWGRVWYSDEGGLYFSMVLDSKLYNPKVINLLVPICIIEVLKNYVDKELGLKFPNDIMVKVNDNYKKLGGILTELTDDYMIIGIGINVNNQIRNEIREIAISLKEITGKELDKVEILSNFLKTFESYLEKLKNKEIDDYEILKKYKKYSITIGKQVKILLSNNEIITGKVYDIDFDGIVLGTEKGIERIPSGICIHVR | not failed
21 | MGAVVVKDLRKRIGKKEILKGISFEIEEGEIFGLIGPNGAGKTTTLRIISTLIKPSSGIVTVFGKNVVEEPHEVRKLISYLPEEAGAYRNMQGIEYLRFVAGFYASSSSEIEEMVERATEIAGLGEKIKDRVSTYSKGMVRKLLIARALMVNPRLAILDEPTSGLDVLNAREVRKILKQASQEGLTILVSSHNMLEVEFLCDRIALIHNGTIVETGTVEELKERYKAQNIEEVFEEVVKCSENF | not failed
22 | MGAGSQTTGAGQKKVQTITVGTGTQFPNICFIDEKGDLTGYDVELIKELDKRLPHYKFTFKTMEFSNLLVSLGQHKVDIVAHQMEKSKEREKKFLFNKVAYNHFPLKITVLQNNDTIRGIEDLKGKRVITSATSNGALVLKKWNEDNGRPFEIAYEGQGANETANQLKSGRADATISTPFAVDFQNKTSTIKEKTVGNVLSNAKVYFMFNKNEQTLSDDIDKALQEIIDDGTLKRLSLKWLGDDYSKEQYLEHHHHHH | not failed
23 | MHMQVIQLHHPYEPNQIPNEEVVMVLGFFDGVHKGHQKVIETGKKIAEEKGLKLAVMTFNQHPSIVFQKVLPENMKYLTSLEQKERLMANLGVDILYIVEFTSAFAQLKPQDFVDQYIVNLNSAVAVSGFDYTYGPKEIAGVKQLPTYAQGRFEVVTVPKEEMTGAKISSTRIREKMEAGEMEEVTELLGYIYETEGTVVHGDARGRLLGFPTANVKVKSTVRLPRIGVYAVQIEVGGKWYVGMGSIGHNDTFGEGRDLTVEVYILDFHQDIYGEQVVVRWNHYLRDQVKFNGAEALIDQLKQDERDTADYFQQSEDK | failed
24 | MGNYKFRISEMLPNAWFHKLKDVTKHSKPKNKASSSSSNTCSKKKPSSDSLPQHSYFSNSLVANNPPHHNSPRNSLHTKKMSKRKTLYKPSLKPLTPPPLLVSASFNKSKINDQDSSYSLFPAIETSPESFVYSFYEEDDDDEFVEFSNFKINTKNKAFTKQKVKVIDSVEKACTASKPIKKPQKSHLSVKISRDEDDNEYKAEKKYQRQVSSGRKPSAGINLKRVNSPRIQLSGTRRSTSRRSESKQDVLESFAVMKRSVDPKKDFRESMIEMIEENNIRASKDLEDLLACYLTLNPKEYHDLIIHVFEQIWLQLTKTK | failed
25 | ILKEYSKLLSFNAQKYYLVGAEKEDLVQEGILGLLKAIKFYDETKSSFSSFAFLCIRREMISAIRKANTQKHMVLNEALKTNAILEDSAYFDDEGHNINNYKSSESNPEEAYLLKEEIEEFKKFSENNFSKFEKEVLTYLIRGYSYREIATILSKNLKSIDNTIQRIRKKSEEWIK | failed
26 | KDFLAMFSPKCGGCNRPVLENYLSAMDTVWHPECFVCGDCFTSFSTGSFFELDGRPFCELHYHHRRG | not failed
27 | SIDAICAYFYAGYDVPRVLNEGGWFFLENILLIKSVGGRKPPLTDNKLRIKFLQTTKMTHVPNREPSSLFRFAAFSMIENKTINSSTVHDAYGIVVRVGNITRPDFVPQASENTILSQFLEFEIKNSWGKSLICVASGYTCELFVQLWRELGLELGYHWNFGMNPTICVLRFWNVDDHEGRQCLISHNGASKITFNQSYPEINMDRVRTQFLQRMQTPELGEVVDEN | not failed
